Columns and labels:
G3BP1-GFP protein = target: T1, G3BP1-GFP protein (Mus musculus, UniProt P97855); test: G3BP1-GFP phase separated droplet dissolution, confocal laser microscope; format: biochemical; conditions: 60 uM polypeptide, 20 uM G3BP1-GFP, pH7.5, 40s after addition
T1 construct: Genes of full-length mouse G3BP1, G3BP1-eGFP; thrombin protease cleavage site (C); His6 (C); made in house; host or cells: Escherichia coli rosetta (DE3)
Protocol: The prokaryotic expressed and purified G3BP1-GFP protein (pH7.5, 20 uM G3BP1-GFP) was induced to form phase separated droplets in vitro. Polypeptides Champ-E (RJK001), Champ-D (RJK002), Champ-K (RJK012) and Champ-Q (RJK005, […], SEQ ID NO: 34) (each of 60 uM) were added dropwise to the G3BP1-GFP droplets. The observation was performed continuously through a confocal laser microscope.
For G3BP1(FL)-eGFP, purified G3BP1(FL)-eGFP, Champ-E and its variants were changed were diluted to droplet buffer (50 mM Tris, pH 7.5, 150 mM NaCl) using SpinDesalt Column (smart). G3BP1(FL)-eGFP proteins were diluted to indicated concentrations and supplemented with PEG8000 with 1.25% final concentration for 10 min to induce phase separation as reported.

G3BP1 = target: T2, G3BP1 (Mus musculus, UniProt P97855); test: G3BP1 turbidity assay (OD395 nm); format: biochemical; conditions: G3BP1 30 μM, ratio range 0.75 to 25, room temperature, 10 minutes
T2 construct: Genes of full-length mouse G3BP1, G3BP1-eGFP; thrombin protease cleavage site (C); His6 (C); made in house; host or cells: Escherichia coli rosetta (DE3)
Protocol: The turbidity of G3BP1 (30 μM) in the presence of various concentrations of Champ-E, Champ-D, Champ-K, or Champ-Q was measured at a wavelength of 395 nm. Briefly, G3BP1 protein ([…]) and polypeptides Champ-E (RJK001), Champ-D (RJK002), Champ-K (RJK012) and Champ-Q (RJK005) were mixed well in a ratio range of 0.75 to 25 at room temperature for 10 minutes prior to turbidity assays. Absorbance at 395 nm (OD395 nm) was monitored at room temperature using Nanodrop ONE (Thermo Fisher Scientific, Inc.). […] The turbidity level reflects the degree of phase separation.
Briefly, the G3BP1 protein and the above-mentioned peptides were mixed at room temperature for 10 minutes prior to turbidity assays. 30 μM G3BP1 and peptide were mixed well in a ratio range of 0.75 to 25 before test. Absorbance at 395 nm (OD395 nm) was monitored at room temperature using Nanodrop ONE (Thermo Fisher Scientific, Inc.).
We followed the Turbidity Assays experiment as previously reported. Briefly, G3BP1 turbidity analysis were at room temperature and γD-crystallin protein was at 4° C. Proteins and Champ-E(RJK001), Champ-K, Champ-D or mutants are mixed at room temperature for 10 minutes prior to turbidity assays. 20 μM G3BP1 and 50 mg/ml(2.5 mM) γD-crystallin and peptide were mixed well in a ratio range of 0.75 to 25 before test. Absorbance at 395 nm (OD395 nm) was monitored at room temperature using Nanodrop ONE (Thermo Fisher Scientific, Inc.).

[1] = tested on: γD (W42D) aggregates in the SH-SY5Y cell; test: γD (W42D) aggregates in SH-SY5Y cells, live imaging and CellProfiler analysis; format: cell-based; conditions: 20 uM, added every 4 hours for a total of 24 hours
Protocol: Cells were grown in a 12-well plate (1×10^5 cells per well) for 24 hours and transfected with γD (W42D) plasmid using EZtrans transfection reagent. 24 hours after transfection, Champ peptides RJK001 (final concentration of 20 uM) and RJK0012 (final concentration of 10 uM and 20 uM) were added into SH-SY5Y cell culture medium every 4 hours for a total of 24 hours. The effect of RJK001 and RJK012 polypeptide on the γD (W42D) aggregates in the SH-SY5Y cell mode were analyzed using a custom CellProfiler software. Briefly, cell bodies were then segmented and identified by the GFP fluorescence channel images and tracing outward to the limits of the cytoplasmic (using a diameter cutoff of 100-300 pixels). The cell bodies were used as masks to eliminate imaging artifacts outside of cell boundaries, such as background fluorescence or dead cells. After masking, punctate structures were enhanced by image processing for speckle-like features that were 10 pixels in diameter for SH-SY5Y cells and these punctate structures were then annotated as features such as γD (W42D) puncta. Finally, the total image area which was enclosed in each of the identified features (number of cell and punctate) was calculated and output to spreadsheets. At least 200 cells per sample were analyzed. […]
Granules screen and assay images were segmented and image features quantified using a custom CellProfiler and ImageJ software. […] The effect of RJK001 and RJK012 polypeptide on the γD ([…]) aggregates in the SH-SY5Y cell mode were analyzed using a custom CellProfiler software. Briefly, cell bodies were then segmented and identified by the GFP fluorescence channel images and tracing outward to the limits of the cytoplasmic (using a diameter cutoff of 100-300 pixels). The cell bodies were used as masks to eliminate imaging artifacts outside of cell boundaries, such as background fluorescence or dead cells. […] Finally, the total image area which was enclosed in each of the identified features (number of cell and punctate) was calculated and output to spreadsheets. At least 200 cells per sample were analyzed.

## TEPQEESEEEVEEPEERQQTPEVVPDDSGTFYDQTVSNDLE [RJK001, polypeptide with hydrophilic and hydrophobic segment, expressed in E. coli]
G3BP1-GFP protein
  dissolution of G3BP1-GFP phase separated droplets: significantly dissolved the phase separated droplets
G3BP1
  turbidity of G3BP1 (OD395 nm): reduced the turbidity in a concentration dependent manner
[1]
  number of γD (W42D) aggregates in the SH-SY5Y cell: reduced the number of γD (W42D) aggregates in the SH-SY5Y cell in a time-dependent manner until 12 hours

Source: patent US20250352611A1, “METHODS FOR TREATING CATARACTS USING POLYPEPTIDES” (REJUKON BIOPHARM INC., priority 2022, published 2025)
